According to US20230270119A1, “BIOSTIMULANT AND BIOPROTECTIVE PEPTIDES AND THEIR USE IN AGRICULTURE” (priority 2020, published 2023):

What was measured:
[1] = system: Spodoptera littoralis larvae; test: Bioassay on Spodoptera littoralis larvae fed with peptide-treated tomato leaves; type: in vivo
Description: Briefly, S. littoralis larvae were grown in a climate chamber at 25° C., 70% relative humidity (RH), with a 16-hour light and 8-hour dark photoperiod and fed with an artificial diet until completion of the first moult. For the bioassays, 150 larvae for each thesis were grown on tomato leaves for the entire duration of the second instar to adapt them to the different diet. The newly moulted third-instar larvae up to the moult stage were fed with plants on which a composition comprising peptides PS1-70 and PS1-120 had been applied at 100 pM and 100 fM concentrations in 1×PBS buffer. Larvae fed with plants treated with 1×PBS buffer only were used as a control. Bioassays were carried out under the same environmental conditions, in 32-well plastic trays containing 1.5% (w/v) agar and 0.005% (w/v) methyl parahydroxybenzoate, which are useful for creating a humid environment for maintaining cell turgor of tomato leaves. Each experimental group consisted of 32 larvae. The survival of the larvae was monitored daily, and their weight every other day. […] A significant decrease in the survival of larvae fed with leaves of plants treated with the peptides of the invention compared to those fed with leaves of the control plants was also observed for both assays (FIGS. 10B and 10D). […] The same assay scheme was carried out by the present inventors by feeding S. littoralis larvae with leaves treated with the peptide PS1-70 and with peptides having the sequences SEQ ID NO. 3, 5, and 8 at femtomolar concentration. […] A significant decrease was also observed in the survival of larvae fed with peptide-treated leaves compared to those fed with the control leaves (FIG. 11B). […] 8, SEQ ID NO. 3, and SEQ ID NO. 5 (FIG. 11B).

[2] = system: cat1, tft1, Sam, HSFA2, HSP70, HSP90, MPK1 and WRKY40 genes; test: Salt stress gene expression in tomato plants irrigated with 100 pM peptide; type: in vivo; conditions: 100 pM irrigation
Description: The analysis was carried out on the cat1, tft1, Sam, HSFA2, HSP70, HSP90, MPK1 and WRKY40 genes. The asterisks indicate the statistical significance of the data by Student's t-test (*p<0.05; **p<0.01; ***p<0.001).
An experiment was also set up to verify the efficiency of the peptides PS1-70, PS1-120 and SEQ ID NO.5, when administered at femtomolar concentrations, in promoting tolerance to a high salt stress condition.

Botrytis cinerea = Botrytis cinerea necrosis areas on treated detached tomato leaves; type: in vivo, Botrytis cinerea on Solanum lycopersicum
Description: For the performance of assays on the phytopathogenic Botrytis cinerea and Alternaria alternata fungi, the present inventors used spores of this microorganism obtained from cultures on solid PDA (Potato Dextrose Agar) sporulation substrate. The plates were inoculated with 20 μl of a conidial suspension at a concentration of 1×10^6 spores/ml and incubated for 15 days at 25° C. in the presence of diffused light, so as to obtain complete sporulation. The spores were then collected in 5 ml of sterile water and, in order to remove the mycelium, were filtered through glass wool, washed with sterile distilled water and collected by centrifugation at room temperature. The concentration of spores suitable for inoculation (10^5-10^7 spores/ml) was determined by the serial dilution method using a Burker cell counting chamber for spore counting.
The assay was carried out on a detached leaf by taking a compound leaf for each treated tomato plant and for each control plant. Each leaflet of the compound leaf was marked with 3 markers in order to guide the subsequent application of the spores and detection of the pathogen developing necrotic areas.
The leaves were treated by applying 2 μl of a composition comprising the peptides PS1-70 and PS1-120 of the invention at a concentration of 100 pM, 100 fM or 1×PBS for the control leaves. After 6 hours, the time necessary for the perception of the peptides, the leaves were detached from the plant and inoculations with 10 μl of spore solution were carried out in the internerve spaces and near the previously marked points. Monitoring was carried out by measuring the necrosis areas (expressed in mm^2) 1, 3, 5, 8 days after inoculation of the pathogen. The necrosis areas recorded on the control leaves were much larger than those detected on plants treated with the peptides of the invention. This difference increased as a function of the time elapsed since inoculation. The resistance inducing effect of the picomolar treatment is already statistically significant from the first day of inoculation of the pathogen up to the eighth day where values of 33 mm^2 were reached on the control leaves, unlike the treated leaves where values not exceeding 18 mm^2 were recorded for both peptides (FIG. 12A).

B. cinerea = type: cell-based, Botrytis cinerea
Description: 3, 5 and 8, and Trichoderma T22, (C) PS1-70 and PS1-120. The growth of the fungus was measured 24 hours after the addition of the peptides of the invention as the turbidity level of the medium (absorbance at 600 nm). The letters a, b indicate the statistical significance of the data (ANOVA), each letter representing a statistical group. Furthermore, as shown in FIGS. 22A and 22B, the growth of the B. cinerea fungus was not disrupted when the growth medium was added with the peptides PS1-70 and PS1-120 of the invention.

[3] = day 13, leaves treated at 100 fM, control 44 mg (FIG. 10C)
[4] = day 15, 100 pM, control 96.87% (FIG. 10B)
[5] = day 15, leaves treated at 100 pM, control 38 mg (FIG. 10A)
[6] = femtomolar, day 8, control 20 mm^2 (FIG. 12B)

Molecule | survival rate of larvae ([1]; day 13, 100 fM, control 100% (FIG. 10D)) [%] | average weight of larvae ([1]; day 13, femtomolar concentration, control 59 mg (FIG. 11A)) [mg] | survival rate of larvae ([1]; day 13, femtomolar concentration, control 100% (FIG. 11B)) [%] | average weight of larvae [1, 3] [mg] | survival rate of larvae [1, 4] [%] | average weight of larvae [1, 5] [mg] | activation of salt stress-responsive genes and transcription factors ([2]; 48 hours, 0 mM NaCl (FIG. 17A)) | tolerance to salt / induction of responsive genes ([2]; moderate salt stress 80 mM NaCl (FIG. 17B)) | necrosis areas (Botrytis cinerea; 100 fM, day 8, control 11.72 mm^2 (FIG. 13)) [mm^2] | necrosis areas (Botrytis cinerea; [6]) [mm^2] | growth of the B. cinerea fungus (B. cinerea)
PS1-70: recombinant peptide contained in the amino-terminal region of the Prosystemin polypeptide, free of Systemin; expressed in E. coli (protein, Peptide PS1-70, recombinant peptide contained in the amino-terminal region of the Prosystemin polypeptide, free of Systemin; expressed in E. coli) MGTPSYDIKNKGDDMQEEPKVKLHHEKGGDEKEKIIEKETPSQDINNKDTISSYVLRDDTQEIPKMEHEE | 0 | 22 | 31.25 | 11 | 34.37 | 15 | able to activate a series of genes and transcription factors responsive to salt stress | more tolerant to salt than the untreated control plants | 7.69 | 6.69 | not disrupted
PS1-120: recombinant peptide contained in the amino-terminal region of the Prosystemin polypeptide, free of Systemin; expressed in E. coli (protein, Peptide PS1-120, recombinant peptide contained in the amino-terminal region of the Prosystemin polypeptide, free of Systemin; expressed in E. coli) MGTPSYDIKNKGDDMQEEPKVKLHHEKGGDEKEKIIEKETPSQDINNKDTISSYVLRDDTQEIPKMEHEEGGYVKEKIVEKETISQYIIKIEGDDDAQEKLKVEYEEEEYEKEKIVEKET |  |  |  | 12 | 31.25 | 20 |  |  |  | 5.19 | not disrupted
